Values belong to the binder of their own block, whether it stands above or below them. *1 amine or outer side, *2 acyl side, *3 side chain or, on linkers, in order; H or OH if unused. Primed or numbered codes have the meaning given here. Side-chain parts run from the residue outwards. [ ]: non-standard residue; d: D form. The star is where a group is joined. PEG2DGA = 2-[2-[3-[2-[2-(3-aminopropoxy)ethoxy]ethoxy]propylamino-2-oxo-ethoxy]acetyl; PEG12 = NCCOCCOCCOCCOCCOCCOCCOCCOCCOCCOCCOCCOCCC(=O)O; γGlu = O=C(O)[C@H](CCC(=O)[*:2])N[*:1]; 1Nal = N[C@@H](Cc1cccc2ccccc12)C(=O)O; Stearoyl = CCCCCCCCCCCCCCCCCC(=O)*; Palmitoyl = CCCCCCCCCCCCCCCC(=O)*; Nle = CCCC[C@H](N)C(=O)O; PEG2′ = PEG2 spacer unit; PEG2″ = not defined here; Aib = CC(C)(N)C(=O)O
Molecular target: T1, RXFP1 receptor (UniProt Q9HBX9 1-757, limits assumed)
T1 sequence (looked up): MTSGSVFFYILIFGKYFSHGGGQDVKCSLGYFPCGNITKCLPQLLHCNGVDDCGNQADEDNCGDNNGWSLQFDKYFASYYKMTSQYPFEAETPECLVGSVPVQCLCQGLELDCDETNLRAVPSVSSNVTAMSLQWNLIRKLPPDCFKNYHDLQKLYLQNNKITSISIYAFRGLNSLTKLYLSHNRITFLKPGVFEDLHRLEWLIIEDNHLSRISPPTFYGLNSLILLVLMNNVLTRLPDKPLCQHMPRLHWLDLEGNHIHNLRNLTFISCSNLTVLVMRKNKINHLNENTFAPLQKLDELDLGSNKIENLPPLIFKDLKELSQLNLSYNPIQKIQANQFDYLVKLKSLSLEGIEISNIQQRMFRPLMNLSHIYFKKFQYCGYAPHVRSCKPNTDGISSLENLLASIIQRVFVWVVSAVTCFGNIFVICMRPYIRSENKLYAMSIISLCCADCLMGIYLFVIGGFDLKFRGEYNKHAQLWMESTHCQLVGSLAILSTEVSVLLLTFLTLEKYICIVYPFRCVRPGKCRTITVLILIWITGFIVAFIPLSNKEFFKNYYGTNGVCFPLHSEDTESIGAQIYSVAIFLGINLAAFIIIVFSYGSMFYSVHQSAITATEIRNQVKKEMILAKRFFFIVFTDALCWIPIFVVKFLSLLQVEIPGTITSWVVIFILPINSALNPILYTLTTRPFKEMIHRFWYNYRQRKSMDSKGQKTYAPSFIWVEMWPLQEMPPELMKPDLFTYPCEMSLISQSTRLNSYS
Assay: cell-based or functional assay

Binder: Ac-LEGREKVRAQI[Aib][Aib]EG[Nle]STWS[Aib]RKKK([PEG2′-PEG2′-PEG2′-γGlu-γGlu-γGlu-γGlu-Stearoyl])-NH2 [peptide of SEQ ID NO: 88]
EC50 (nM), OVCAR 5 cells (cAMP): 0.11 nM | EMax, OVCAR 5 cells (cAMP): 74%

B1: peptide of SEQ ID NO: 9 (peptide)
peptide: Ac-LEGREKVRAQI[Aib][Aib]EG[Nle]STWS[Aib]RKK([γGlu-γGlu-γGlu-Stearoyl])-NH2
SMILES: CCCCCCCCCCCCCCCCCC(=O)N[C@@H](CCC(=O)N[C@@H](CCC(=O)N[C@@H](CCC(=O)NCCCC[C@H](NC(=O)[C@H](CCCCN)NC(=O)[C@H](CCCNC(=N)N)NC(=O)C(C)(C)NC(=O)[C@H](CO)NC(=O)[C@H](Cc1c[nH]c2ccccc12)NC(=O)[C@@H](NC(=O)[C@H](CO)NC(=O)[C@H](CCCC)NC(=O)CNC(=O)[C@H](CCC(=O)O)NC(=O)C(C)(C)NC(=O)C(C)(C)NC(=O)[C@@H](NC(=O)[C@H](CCC(N)=O)NC(=O)[C@H](C)NC(=O)[C@H](CCCNC(=N)N)NC(=O)[C@@H](NC(=O)[C@H](CCCCN)NC(=O)[C@H](CCC(=O)O)NC(=O)[C@H](CCCNC(=N)N)NC(=O)CNC(=O)[C@H](CCC(=O)O)NC(=O)[C@H](CC(C)C)NC(C)=O)C(C)C)[C@@H](C)CC)[C@@H](C)O)C(N)=O)C(=O)O)C(=O)O)C(=O)O
EC50 (nM), OVCAR 5 cells (cAMP): 11.8 nM | EMax, OVCAR 5 cells (cAMP): 95%

Binder: Ac-LEGREKVRAQI[Aib][Aib]EG[Nle]STWS[Aib]RKKK([PEG2′-PEG2′-PEG2′-PEG2′-γGlu-γGlu-γGlu-Stearoyl])-NH2 [peptide of SEQ ID NO: 92]
EC50 (nM), OVCAR 5 cells (cAMP): 0.26 nM | EMax, OVCAR 5 cells (cAMP): 82%

Binder: Ac-LEGREKVRAK(Ac)I[Aib][Aib]EG[Nle]STWS[Aib]RKK(Ac)K([PEG2′-PEG2′-PEG2′-PEG2′-γGlu-γGlu-γGlu-Stearoyl])-NH2 [peptide of SEQ ID NO: 90]
EC50 (nM), OVCAR 5 cells (cAMP): 0.07 nM | EMax, OVCAR 5 cells (cAMP): 89%

Binder: Ac-LEGREKVRAK(Ac)I[Aib][Aib]EG[Nle]ST[1Nal]S[Aib]RK(Ac)LK([PEG2′-PEG2′-PEG2′-γGlu-γGlu-γGlu-Stearoyl])-NH2 [peptide of SEQ ID NO: 87]
EC50 (nM), OVCAR 5 cells (cAMP): 1.63 nM | EMax, OVCAR 5 cells (cAMP): 71%

Binder: Ac-LEGREKVRAK(Ac)I[Aib][Aib]EG[Nle]STWS[Aib]RKKK([PEG2′-PEG2′-PEG2′-γGlu-γGlu-γGlu-γGlu-Stearoyl])-NH2 [peptide of SEQ ID NO: 89]
EC50 (nM), OVCAR 5 cells (cAMP): 0.03 nM | EMax, OVCAR 5 cells (cAMP): 79%

Binder: Ac-LEGREKVR[Aib]K(Ac)I[Aib][Aib]EG[Nle]ST[1Nal]S[Aib]RKK(Ac)K([PEG2′-PEG2′-PEG2′-γGlu-γGlu-γGlu-Stearoyl])-NH2 [peptide of SEQ ID NO: 85]
EC50 (nM), OVCAR 5 cells (cAMP): 0.77 nM | EMax, OVCAR 5 cells (cAMP): 75%

Binder: Ac-LEGREKVRAK(Ac)I[Aib][Aib]EG[Nle]STWS[Aib]RKKK([PEG2′-PEG2′-PEG2′-PEG2′-γGlu-γGlu-γGlu-Stearoyl])-NH2 [peptide of SEQ ID NO: 91]
EC50 (nM), OVCAR 5 cells (cAMP): 0.01 nM | EMax, OVCAR 5 cells (cAMP): 88%

Binder: Ac-LEGREKVRAQI[Aib][Aib]EG[Nle]STWS[Aib]RK[PEG2″]K([γGlu-γGlu-γGlu-Palmitoyl])-NH2 [peptide of SEQ ID NO: 10]
EC50 (nM), OVCAR 5 cells (cAMP): 18.9 nM | EMax, OVCAR 5 cells (cAMP): 96%

Binder: Ac-LEGREKVRAQI[Aib][Aib]EG[Nle]STWS[Aib]RKKK([PEG2′-PEG2′-PEG2′-PEG2′-PEG2′-γGlu-γGlu-γGlu-Stearoyl])-NH2 [peptide of SEQ ID NO: 93]
EC50 (nM), OVCAR 5 cells (cAMP): 0.14 nM | EMax, OVCAR 5 cells (cAMP): 87%

Next, values leading:

EC50 (nM), OVCAR 5 cells (cAMP): 0.74 nM | EMax, OVCAR 5 cells (cAMP): 99%
Binder: Ac-LEGREKVRAQI[Aib][Aib]EG[Nle]STWS[Aib]RKKK([PEG2′-PEG2′-γGlu-γGlu-γGlu-PEG2′-Stearoyl])-NH2 [peptide of SEQ ID NO: 98]

EC50 (nM), OVCAR 5 cells (cAMP): 0.16 nM | EMax, OVCAR 5 cells (cAMP): 90%
Binder: Ac-LEGREKVRAQI[Aib][Aib]EG[Nle]STWS[Aib]RKK([PEG2″-PEG2″-γGlu-γGlu-PEG2″-γGlu-Stearoyl])-NH2 [peptide of SEQ ID NO: 100]

EC50 (nM), OVCAR 5 cells (cAMP): 0.01 nM | EMax, OVCAR 5 cells (cAMP): 87%
Binder: Ac-LEGREKVRAQI[Aib][Aib]EG[Nle]STWS[Aib]RKKK([PEG2′-PEG2′-γGlu-γGlu-PEG2′-γGlu-Stearoyl])-NH2 [peptide of SEQ ID NO: 99]

EC50 (nM), OVCAR 5 cells (cAMP): 2.74 nM | EMax, OVCAR 5 cells (cAMP): 90%
Binder: Ac-LEGREKVRAK(Ac)I[Aib][Aib]EG[Nle]STWS[Aib]RKK(Ac)K([PEG2DGA-γGlu-γGlu-γGlu-Stearoyl])-NH2 [peptide of SEQ ID NO: 94]

EC50 (nM), OVCAR 5 cells (cAMP): 1.77 nM | EMax, OVCAR 5 cells (cAMP): 89%
Binder: Ac-LEGREKVRAK(Ac)I[Aib][Aib]EG[Nle]STWS[Aib]RKK(Ac)K([PEG2DGA-PEG2DGA-PEG2DGA-γGlu-γGlu-γGlu-Stearoyl])-NH2 [peptide of SEQ ID NO: 96]

EC50 (nM), OVCAR 5 cells (cAMP): 0.16 nM | EMax, OVCAR 5 cells (cAMP): 86%
Binder: Ac-LEGREKVRAK(Ac)I[Aib][Aib]EG[Nle]STWS[Aib]RKK(Ac)K([PEG2″-PEG2″-γGlu-γGlu-PEG2″-γGlu-Stearoyl])-NH2 [peptide of SEQ ID NO: 101]

EC50 (nM), OVCAR 5 cells (cAMP): 1.03 nM | EMax, OVCAR 5 cells (cAMP): 87%
Binder: Ac-LEGREKVRAK(Ac)I[Aib][Aib]EG[Nle]STWS[Aib]RKK(Ac)K([PEG2DGA-PEG2DGA-γGlu-γGlu-γGlu-Stearoyl])-NH2 [peptide of SEQ ID NO: 95]

EC50 (nM), OVCAR 5 cells (cAMP): 4.92 nM | EMax, OVCAR 5 cells (cAMP): 98%
B2: peptide of SEQ ID NO: 97 (peptide)
peptide: Ac-LEGREKVRAQI[Aib][Aib]EG[Nle]STWS[Aib]RKKK([PEG12-γGlu-γGlu-γGlu-Stearoyl])-NH2
SMILES: CCCCCCCCCCCCCCCCCC(=O)N[C@@H](CCC(=O)N[C@@H](CCC(=O)N[C@@H](CCC(=O)NCCOCCOCCOCCOCCOCCOCCOCCOCCOCCOCCOCCOCCC(=O)NCCCC[C@H](NC(=O)[C@H](CCCCN)NC(=O)[C@H](CCCCN)NC(=O)[C@H](CCCNC(=N)N)NC(=O)C(C)(C)NC(=O)[C@H](CO)NC(=O)[C@H](Cc1c[nH]c2ccccc12)NC(=O)[C@@H](NC(=O)[C@H](CO)NC(=O)[C@H](CCCC)NC(=O)CNC(=O)[C@H](CCC(=O)O)NC(=O)C(C)(C)NC(=O)C(C)(C)NC(=O)[C@@H](NC(=O)[C@H](CCC(N)=O)NC(=O)[C@H](C)NC(=O)[C@H](CCCNC(=N)N)NC(=O)[C@@H](NC(=O)[C@H](CCCCN)NC(=O)[C@H](CCC(=O)O)NC(=O)[C@H](CCCNC(=N)N)NC(=O)CNC(=O)[C@H](CCC(=O)O)NC(=O)[C@H](CC(C)C)NC(C)=O)C(C)C)[C@@H](C)CC)[C@@H](C)O)C(N)=O)C(=O)O)C(=O)O)C(=O)O

Source: patent US20190233493A1 (Sanofi, published 2019)
